Laboratory results reported in US20160279215A1, “NOVEL PEPTIDES AND COMBINATION OF PEPTIDES FOR USE IN IMMUNOTHERAPY AGAINST VARIOUS TUMORS” (immatics biotechnologies GmbH, priority 2015, published 2016).

Each binder was assayed against T1, HLA-A*02:01 (human) (assay: UV ligand-exchange ELISA (anti-b2m); +++ = exchange yield >=50).
T1 construct: MHC monomers captured on streptavidin plates; the UV-sensitive peptide is cleaved and exchanged with the test peptide; also called peptide-receptive MHC molecules; MHC class I
From the text: Candidate peptides for T cell based therapies according to the present invention were further tested for their MHC binding capacity (affinity). The individual peptide-MHC complexes were produced by UV-ligand exchange, where a UV-sensitive peptide is cleaved upon UV-irradiation, and exchanged with the peptide of interest as analyzed. Only peptide candidates that can effectively bind and stabilize the peptide-receptive MHC molecules prevent dissociation of the MHC complexes. To determine the yield of the exchange reaction, an ELISA was performed based on the detection of the light chain (β2m) of stabilized MHC complexes. The assay was performed as generally described in Rodenko et al. (Rodenko et al., 2006).
96 well MAXISorp plates (NUNC) were coated over night with 2 ug/ml streptavidin in PBS at room temperature, washed 4× and blocked for 1 h at 37° C. in 2% BSA containing blocking buffer. Refolded HLA-A*02:01/MLA-001 monomers served as standards, covering the range of 15-500 ng/ml. Peptide-MHC monomers of the UV-exchange reaction were diluted 100 fold in blocking buffer. Samples were incubated for 1 h at 37° C., washed four times, incubated with 2 ug/ml HRP conjugated anti-β2m for 1 h at 37° C., washed again and detected with TMB solution that is stopped with […]. Absorption was measured at 450 nm. Candidate peptides that show a high exchange yield (preferably higher than 50%, most preferred higher than 75%) are generally preferred for a generation and production of antibodies or fragments thereof, and/or T cell receptors or fragments thereof, as they show sufficient avidity to the MHC molecules and prevent dissociation of the MHC complexes.

| peptide exchange yield [%] | Binder |
| --- | --- |
| 50 to 75 | VLFGELPAL |
| 50 to 75 | SIIEYLPTL |
| 50 to 75 | KLIDHQGLYL |
| 50 to 75 | VLDGKVAVV |
| 50 to 75 | IVTEIISEI |
| 50 to 75 | GLVDIMVHL |
| 50 to 75 | KLQEELNKV |
| 50 to 75 | GLAALAVHL |
| 50 to 75 | TLLTFFHEL |
| 50 to 75 | FLLDKPQDLSI |
| 50 to 75 | HLWGHALFL |
| 50 to 75 | RMPTVLQCV |
| 50 to 75 | GLLGKVTSV |
| 50 to 75 | MLLDTVQKV |
| 50 to 75 | GLLETTGLLAT |
| 50 to 75 | YLLDMPLWYL |
| 50 to 75 | KIWEELSVLEV (also called MAGEA3-003) |
| 50 to 75 | YLEDGFAYV |
| 50 to 75 | LLLEAVWHL |
| 50 to 75 | VLEDKVLSV |
| 50 to 75 | TLYNPERTITV (also called IGF-004) |
| 50 to 75 | ALNESLVEC |
| 50 to 75 | AVFNLVHVV |
| 50 to 75 | IITEVITRL |
| 50 to 75 | TLNTLDINL |
| 50 to 75 | TVLQELINV |
| 50 to 75 | VLIEYNFSI |
| 50 to 75 | FLTEMVHFI |
| 50 to 75 | ALSELLQQV |
| 50 to 75 | FLPVSVVYV |
